Laboratory results from US20040170990A1, “Intracellular nucleic acid inhibitors of small guanine nucleotide exchange factors” (published 2004).
Values belong to the molecule of their own block, whether it stands above or below them.

What was measured:
[1] = biological target: chimera ARF-1 protein fused at the carboxy terminus to the constant CH1 and CH2 domains of human IgG immunoglobulin (human) (UniProt P84077); assay: cell-based or functional assay
[2] = biological target: T1, cytohesin-1 (full-length) (UniProt Q15438); assay: filter; conditions: non-selected library; 3 mM MgCl2, 37 C
T1 sequence: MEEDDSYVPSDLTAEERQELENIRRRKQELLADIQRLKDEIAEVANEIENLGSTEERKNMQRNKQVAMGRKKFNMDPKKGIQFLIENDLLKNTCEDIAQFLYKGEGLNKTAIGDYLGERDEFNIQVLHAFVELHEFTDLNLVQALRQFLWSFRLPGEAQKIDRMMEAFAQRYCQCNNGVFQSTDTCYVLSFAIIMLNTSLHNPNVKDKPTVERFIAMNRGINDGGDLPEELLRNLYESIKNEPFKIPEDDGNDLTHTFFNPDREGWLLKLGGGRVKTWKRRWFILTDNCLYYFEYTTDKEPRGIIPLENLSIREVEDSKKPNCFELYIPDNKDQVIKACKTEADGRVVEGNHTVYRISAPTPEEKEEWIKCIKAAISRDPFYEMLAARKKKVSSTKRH

[3] = biological target: T2, Gea2 Sec7 domain (Gea2-Sec7, G2-Sec7) (UniProt P39993 P39993:570-714); assay: filter; barely binds; 3 mM MgCl2, 37 C; conditions: tags: 6xHis, provided by Cathy Jackson; label: 5'-32P
T2 chain: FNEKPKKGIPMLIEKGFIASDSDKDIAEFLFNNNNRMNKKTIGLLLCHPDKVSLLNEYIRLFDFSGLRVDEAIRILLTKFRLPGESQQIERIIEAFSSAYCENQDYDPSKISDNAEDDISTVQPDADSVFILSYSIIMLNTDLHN
Method: (§1) The dissociation constant (Kd) was determined as described by Jellinek et al. (Jellinek et al., Proc. Natl. Acad. Sci. USA 90 (1993), 11227-11231). […] Of the analysed sequences the clone M69 bound cytohesin-1-His6 with a dissociation constant of 16 nM (see Table 2). As controls the same binding experiments were carried out with E. coli lysates which were treated similarly to the cytohesin-1 expressed in E. coli.
(§2) In the next step the binding site of the aptamer M69 on cytohesin-1 was delimited in more detail. For this purpose filter binding studies were carried out using subdomain constructs of cytohesin-1. The PH domain and the Sec7 domain of cytohesin-1 were overexpressed as 6×His-Tag proteins (PH-His6 and C1-Sec7-His6) in E. coli and purified as described for cytohesin-1-His6. The synthetic polybasic C-peptide was obtained from the company TopLab (Munich). The Sec7 domain of the large Brefeldin A-sensitive ARF-GEF's Gea2 (Gea2-Sec7) was made available as 6×His-Tag protein by Cathy Jackson (Departement de Biologie Cellulaire et Moleculaire, CEA/Saclay, France). […] On the other hand, no interaction with the PH domain or the Sec7 domain of Gea2 could be detected (see Table 2). […] The aptamer M5 on the other hand recognises both the Sec7 domain of cytohesin-1 and also of Gea2 with approximately the same affinity. The PH domain of cytohesin-1 is recognised an order of magnitude less well. […]

[4] = biological target: T3, cytohesin-1 Sec7 domain (C1-Sec7) (UniProt Q15438 Q15438:73-202); assay: filter; 3 mM MgCl2, 37 C; conditions: tags: 6xHis, E. coli
T3 chain: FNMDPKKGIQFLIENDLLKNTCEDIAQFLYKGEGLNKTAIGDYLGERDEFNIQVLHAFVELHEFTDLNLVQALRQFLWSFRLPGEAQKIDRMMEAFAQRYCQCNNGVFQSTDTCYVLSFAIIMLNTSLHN
Method: as §1, with “Natl.” for “The dissociation constant (Kd) was determined as described by Jellinek et al. (Jellinek et al., Proc. Natl.”
(§3) In the next step the binding site of the aptamer M69 on cytohesin-1 was delimited in more detail. For this purpose filter binding studies were carried out using subdomain constructs of cytohesin-1. The PH domain and the Sec7 domain of cytohesin-1 were overexpressed as 6×His-Tag proteins (PH-His6 and C1-Sec7-His6) in E. coli and purified as described for cytohesin-1-His6. The synthetic polybasic C-peptide was obtained from the company TopLab (Munich). The Sec7 domain of the large Brefeldin A-sensitive ARF-GEF's Gea2 (Gea2-Sec7) was made available as 6×His-Tag protein by Cathy Jackson (Departement de Biologie Cellulaire et Moleculaire, CEA/Saclay, France). […] On the other hand, no interaction with the PH domain or the Sec7 domain of Gea2 could be detected (see Table 2). […] The aptamer M5 on the other hand recognises both the Sec7 domain of cytohesin-1 and also of Gea2 with approximately the same affinity. The PH domain of cytohesin-1 is recognised an order of magnitude less well. The aptamer M56 however binds best to the full-length protein cytohesin-1 and barely to the Sec7 domain of Gea2. Since both the Sec7 domain and also the PH domain of cytohesin-1 are bound with somewhat reduced affinities compared with the full-length protein, the aptamer appears to recognise a binding site on cytosin-1 which is composed of both domains.

[5] = biological target: T4, cytohesin-1 PH domain (C1-PH) (UniProt Q15438 Q15438:260-377); assay: filter; 3 mM MgCl2, 37 C; conditions: tags: 6xHis, E. coli; label: 5'-32P
T4 chain: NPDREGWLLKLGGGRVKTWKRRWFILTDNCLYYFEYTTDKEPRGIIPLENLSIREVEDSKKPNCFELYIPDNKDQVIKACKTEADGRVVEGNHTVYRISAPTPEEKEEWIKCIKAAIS
Method: as §1, with “Natl.” for “The dissociation constant (Kd) was determined as described by Jellinek et al. (Jellinek et al., Proc. Natl.”
as §3

[6] = biological target: T5, cytohesin-1 (full-length) (UniProt Q15438 Q15438:1-398); assay: filter; 3 mM MgCl2, PBS-type buffer pH 7.3, 37 C; conditions: tags: 6xHis (cytohesin-1-His6), E. coli, Ni-NTA; label: 5'-32P
Method: (§4) Increasing concentrations of cytohesin-1-His6 (0.1 nM to 500 nM) were incubated with the aptamers according to the invention (1.0 nM) radioactively labelled with ³²P at the 5′ end for 1 h at 37° C. in selection buffer. The RNA/cytohesin-1-His6 complexes were then filtered over nitrocellulose acetate mixed membranes (HAWP 0.45 μm, Millipore). The filter was then rinsed with 5 ml of washing buffer (3 mM MgCl₂, 137 mM NaCl, 2.7 mM KCl, 4.3 mM Na₂HPO₄.7H₂O, 1.4 mM KH₂PO₄). Before the experiment the filters were pretreated for 10 minutes with 40 mM 6-aminocaproic acid and 20% ethanol. Radioactive RNA retained on the filters was quantified by analysis using a phosphor imager (Storm 860, Amersham). The dissociation constant (Kd) was determined as described by Jellinek et al. (Jellinek et al., Proc. Natl. Acad. Sci. USA 90 (1993), 11227-11231). […] Of the analysed sequences the clone M69 bound cytohesin-1-His6 with a dissociation constant of 16 nM (see Table 2). As controls the same binding experiments were carried out with E. coli lysates which were treated similarly to the cytohesin-1 expressed in E. coli.

[7] = biological target: T4, cytohesin-1 PH domain (C1-PH); assay: filter; no measurable interaction; conditions: tags: 6xHis, E. coli
Method: as §1, with “Natl.” for “The dissociation constant (Kd) was determined as described by Jellinek et al. (Jellinek et al., Proc. Natl.”
as §2

[8] = biological target: T2, Gea2 Sec7 domain (Gea2-Sec7, G2-Sec7); assay: filter; no measurable interaction; conditions: tags: 6xHis, provided by Cathy Jackson
Method: as §1, with “Natl.” for “The dissociation constant (Kd) was determined as described by Jellinek et al. (Jellinek et al., Proc. Natl.”
as §2

[9] = biological target: T5, cytohesin-1 (full-length); assay: filter; 3 mM MgCl2, 37 C; conditions: tags: 6xHis (cytohesin-1-His6), E. coli, Ni-NTA
Method: as §1, with “Natl.” for “The dissociation constant (Kd) was determined as described by Jellinek et al. (Jellinek et al., Proc. Natl.”
as §3

[10] = biological target: T5, cytohesin-1 (full-length); assay: non-binding negative control; conditions: tags: 6xHis (cytohesin-1-His6), E. coli, Ni-NTA
[11] = biological target: T5, cytohesin-1 (full-length); assay: filter; 3 mM MgCl2, 37 C; conditions: tags: 6xHis (cytohesin-1-His6), E. coli, Ni-NTA; remark: listed apart in the source
Method: Filter binding experiments were carried out in order to test whether the selected aptamer sequences can also recognise native cytohesin-1 in solution. The interaction analyses are described in detail in the literature. (Jellinek et al., Proc. Natl. Acad. Sci. USA 90 (1993), 11227-11231; Jellinek et al., Biochemistry 33 (1994), 10450-10456).
as §4, with “As controls the same binding experiments were carried out with E. coli lysates which were treated similarly to the cytohesin-1 expressed in E. coli.” left out

[12] = biological target: T2, Gea2 Sec7 domain (Gea2-Sec7, G2-Sec7); assay: filter; 3 mM MgCl2, 37 C; conditions: tags: 6xHis, provided by Cathy Jackson; label: 5'-32P
Method: as §1, with “Natl.” for “The dissociation constant (Kd) was determined as described by Jellinek et al. (Jellinek et al., Proc. Natl.”
as §3

Chain of chimera ARF-1 protein fused at the carboxy terminus to the constant CH1 and CH2 domains of human IgG immunoglobulin (human) (P84077 whole entry, stated change not applied, the tested form may be a part): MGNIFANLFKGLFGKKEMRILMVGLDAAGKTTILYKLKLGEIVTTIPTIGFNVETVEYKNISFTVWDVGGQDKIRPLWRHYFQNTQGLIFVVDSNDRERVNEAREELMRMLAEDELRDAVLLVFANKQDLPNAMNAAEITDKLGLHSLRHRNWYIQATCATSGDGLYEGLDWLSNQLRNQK

binding of [gamma-35S]-GTP to ARF-1 (GDP/GTP exchange assay) [1]: 10 fold
Molecule: cytohesin-1 (full-length protein) (from UniProt Q15438 1-398) (enzyme)

Molecule: CUAUAGGGAGAGACAAGCUUGGGUCNNNNNNNNNNNNNNNNNNNNNNNNNNNNNNNNNNNNNNNNAGAAGAGAAAGAGAAGUUAAUUAAGGAUCCUCAG [non-selected N40 RNA library]
Kd [2]: > 4000 nM

B1: M56 (ssRNA)
RNA: GGGAGAGACAAGCUUGGGUCUGUUGUUGGACCAGUGUUAUUUUACGCGAUUGUGCGGUUGUGAAGAGAAAGAGAAGUUAAUUAAGGAUCCUCAG
Kd [3]: > 1000 nM
Kd ([4]; label: 5'-32P): 280 nM
Kd [5]: 150 nM
Kd [6]: 5 nM

B2: M69 (ssRNA)
RNA: GGGAGAGACAAGCUUGGGUCUAUUAUGCCUUUAGCUAGCGCAUUCUGUGGGGUGGGUGGAAGAAGAGAAAGAGAAGUUAAUUAAGGAUCCUCAG
binding result [7]: no binding
binding result [8]: no binding
Kd [9]: 16 nM
Kd [4]: 16 nM

B3: ML1 (ssRNA)
RNA: GGGAGAGACAAGCUUGGGUCGUGUCUGUGUAGAGGACAGGGCGAGAGUCUGAUUGUCUGCAGAAGAGAAAGAGAAGUUAAUUAAGGAUCCUCAG
binding result [10]: no binding

B4: M3 (ssRNA)
RNA: GGGAGAGACAAGCUUGGGUCAGGGAGGGUAGGGAUUUGGUUGUCCCAUGUUCGCAGCCGUAGAAGAGAAAGAGAAGUUAAUUAAGGAUCCUCAG
binding result [11]: binds

B5: M41 (ssRNA)
RNA: GGGAGAGACAAGCUUGGGUCGUCAUCCGUGUUUUGUCAUGUUUUGAUGGGGUUUGGGGUGUGAUAAGAGAAAGAGAAGUUAAUUAAGGAUCCUCAG
binding result [11]: binds

B6: M5 (ssRNA)
RNA: GGGAGAGACAAGCUUGGGUCGGGUUCGCUAAGUUGGUCUACCCCUCUCGAAUAUCCGUUAAGAAGAGAAAGAGAAGUUAAUUAAGGAUCCUCAG
Kd ([9]; label: 5'-32P): 40 nM
Kd ([4]; label: 5'-32P): 36 nM
Kd [5]: 480 nM
Kd [12]: 48 nM
